Source: the supplement of paper PMC7125110
± gives the standard error. For some assays here: This sample holds only a part of the variants without activity.

B1: glmS ribozyme (parent)
chain: AUAAAAGCGCCAGAACUACAGAAAUGUAGUUGACGAGGAGGAGGUUUAUCGAAUUUUCGGCGGAUGCCUCCAAA

Legend:
Settings in all cases: with glucosamine-6-phosphate
glucosamine-6-phosphate [1] = variants of: B1; experiment: kcat; higher = faster cleavage; RNA array
Outline: (§1)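 Glucosamine-6-phosphate, from 40 μM to 10 mM in HEPES/KCl/Mg(OAc)2 buffer, was flowed over sequenced MiSeq chips carrying barcoded ribozyme variants transcribed in situ by E. coli RNA polymerase. A hybridised Cy3 probe tracked the variants at 37 °C as tiles were imaged over ~14 h. kobs, kcat and KM were obtained by fitting normalised per-tile medians to exponential decays and then applying weighted Michaelis–Menten fits across concentrations.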

glucosamine-6-phosphate [2] = variants of: B1; experiment: self-cleavage kobs at 160 uM GlcN6P; higher = faster cleavage; RNA array
Outline: as §1

glucosamine-6-phosphate [3] = variants of: B1; experiment: self-cleavage kobs at 10000 uM GlcN6P; higher = faster cleavage; RNA array
Outline: as §1

glucosamine-6-phosphate [4] = variants of: B1; experiment: self-cleavage kobs at 2500 uM GlcN6P; higher = faster cleavage; RNA array
Outline: as §1

glucosamine-6-phosphate [5] = variants of: B1; experiment: KM; higher = weaker cofactor use; RNA array
Outline: as §1

glucosamine-6-phosphate [6] = variants of: B1; experiment: self-cleavage kobs at 40 uM GlcN6P; higher = faster cleavage; RNA array
Outline: as §1

glucosamine-6-phosphate [7] = variants of: B1; experiment: self-cleavage kobs at 640 uM GlcN6P; higher = faster cleavage; RNA array
Outline: as §1

Row | Variant | kcat (glucosamine-6-phosphate [1]) | self-cleavage kobs at 160 uM GlcN6P (glucosamine-6-phosphate [2]) | self-cleavage kobs at 10000 uM GlcN6P (glucosamine-6-phosphate [3]) | self-cleavage kobs at 2500 uM GlcN6P (glucosamine-6-phosphate [4]) | KM (glucosamine-6-phosphate [5]) | self-cleavage kobs at 40 uM GlcN6P (glucosamine-6-phosphate [6]) | self-cleavage kobs at 640 uM GlcN6P (glucosamine-6-phosphate [7])
1 | AUAAAAGCGCCAGAACUACAGAAAUGUAGUUGACGAGGAGGUGGUUUAUCGGAUUUUCGGCGGAUGCCUCCAAA [A42U A52G] | 1.76e-05 ± 2.4e-06 s⁻¹ | < 1e-05 s⁻¹ | 1.62e-05 ± 7.9e-06 s⁻¹ |  |  |  | 
2 | AUAAAAGCGCCAGAACUACAGAAAUGUAGUUGACGAGGACGAGGUUUAUCGAAUUUUCGGCGGAUGCCCCCAAA [G40C U69C] | 7.37e-05 ± 2.1e-05 s⁻¹ |  | 5.63e-05 ± 1.4e-05 s⁻¹ | 5.5e-05 ± 1.1e-05 s⁻¹ |  |  | 
3 | AUAAAAGCGCCAGAACUACAGAAAUGUAGUUGACGAGGAGGAGGUUUAUUGGAUUUUCGGCGGAUGCCUCCAAA [C50U A52G] | 1.11e-05 ± 2.8e-06 s⁻¹ |  |  |  |  |  | 
4 | AUAAAAGCGCCAGAACUACAGAAAUGUAGUUGACGAGGAGGAGAGUUAUCGAAUUUUCGGCGGAUGCCUCCAAA [G44A U45G] | 0.00378 ± 0.00039 s⁻¹ | 0.000285 ± 6.4e-05 s⁻¹ | 0.0033 ± 0.0007 s⁻¹ | 0.00218 ± 0.00031 s⁻¹ | 1850 ± 280 µM | 9.22e-05 ± 1.8e-05 s⁻¹ | 0.000889 ± 0.00016 s⁻¹
5 | AUAAAAGCGCCAGAACUACAGAAAUGUAGUUGACGAGGAGGAGGUUUAUCGAAUUUUCGGCGGAUCCCUUCAAA [G66C C70U] | 0.00129 ± 0.00032 s⁻¹ | 0.000178 ± 3.5e-05 s⁻¹ | 0.0011 ± 0.00011 s⁻¹ | 0.00109 ± 0.00013 s⁻¹ | 1440 ± 670 µM | 4.77e-05 ± 9.1e-06 s⁻¹ | 0.000285 ± 4.7e-05 s⁻¹
6 | AUAAAGGCGCCAGAACUACAGAAAUGUAGUUGACGAGGAGGAGGUUGAUCGAAUUUUCGGCGGAUGCCUCCAAA [A6G U47G] | 0.0001 ± 1.3e-05 s⁻¹ |  | 9.1e-05 ± 1.8e-05 s⁻¹ | 6.1e-05 ± 1.2e-05 s⁻¹ | 1400 ± 520 µM | < 1e-05 s⁻¹ | 3.81e-05 ± 1.5e-05 s⁻¹
7 | AUAAAAGCGCCAGUACUACAGAAAUGUAGUUGACGAGGAGGAGGUUUAUCGAAUUUUCGGCGGAUGCCGCCAAA [A14U U69G] | 3.85e-05 ± 7.5e-06 s⁻¹ | 4.67e-05 ± 1.3e-05 s⁻¹ | 3.9e-05 ± 8.1e-06 s⁻¹ | 3.53e-05 ± 6.6e-06 s⁻¹ |  |  | 
8 | AUAAAAGCGCCAGAACUACAGAAAUGUAGUUGACGAUGAGGAGGAUUAUCGAAUUUUCGGCGGAUGCCUCCAAA [G37U U45A] | < 1e-05 s⁻¹ | < 1e-05 s⁻¹ |  |  |  |  | 
9 | AUAAAAGCGCCAGAACUACAGAAAUGUAGUUGACGAGGAGGAAGUUUAUCGAAGUUUCGGCGGAUGCCUCCAAA [G43A U54G] | 0.000123 ± 6e-06 s⁻¹ |  | 9.76e-05 ± 1.9e-05 s⁻¹ | 6.39e-05 ± 1.5e-05 s⁻¹ | 2490 ± 310 µM |  | 
10 | AUAAAAGCGCCUGACCUACAGAAAUGUAGUUGACGAGGAGGAGGUUUAUCGAAUUUUCGGCGGAUGCCUCCAAA [A12U A15C] | 0.00683 ± 0.003 s⁻¹ |  | 0.0117 ± 0.0029 s⁻¹ | 0.00385 ± 0.0017 s⁻¹ |  | 0.000955 ± 0.00021 s⁻¹ | 0.0109 ± 0.0048 s⁻¹
11 | AUAAAAGCGCCAGAACUACAGAAAUGUAGUUGACGAGGAGGAGGUUCAUCGAAUUUUCGGCGGAGGCCUCCAAA [U47C U65G] | 0.00435 ± 0.0005 s⁻¹ |  | 0.00312 ± 0.0006 s⁻¹ | 0.00189 ± 0.00047 s⁻¹ | 3840 ± 610 µM | 4.89e-05 ± 1.1e-05 s⁻¹ | 0.000565 ± 0.00011 s⁻¹
12 | AUAAAAGCGCCAGAACUACAGAAAUGUACUUGACGAGGAGGAGGUUUAUCGAAUUUUCGGCGGAUCCCUCCAAA [G29C G66C] | 2.22e-05 ± 9.6e-06 s⁻¹ |  |  |  |  |  | 
13 | AUAAAAGCGCCAGAACUACAGAAAUGUAGUUGACGAGGAGGAGGUUUAUCGUAUUUUCGGCGGAUGCCUUCAAA [A52U C70U] | 0.00063 ± 0.0001 s⁻¹ |  | 0.000483 ± 4.7e-05 s⁻¹ | 0.000228 ± 3.4e-05 s⁻¹ | 3490 ± 1100 µM |  | 0.000122 ± 2e-05 s⁻¹
14 | AUAAAAUCGCCAGAACUACAGAAAUGUAGUUGACGAGGAGGAGGUUUAUCGAAUUUUCGGCGGAUUCCUGCAAA [G7U G66U C70G] | < 1e-05 s⁻¹ |  |  | < 1e-05 s⁻¹ |  |  | 
15 | AUAAAAGCGCCAGAACUACAGAAAUGUACUUGACGAAGAGGAGGUUUAUCGAAUUUUCGGCGGAUGCCUCCAAA [G29C G37A] | 0.000262 ± 4.4e-05 s⁻¹ |  | 0.000165 ± 3.8e-05 s⁻¹ | 7.11e-05 ± 1.8e-05 s⁻¹ | 6200 ± 1700 µM |  | 
16 | AUAAAAGCGCCAGAACUACAGAAAUGUAGUUGACGAGGAGGAGGUUUAUCAAAUUUUCGGCGGAUGCGUCCAAA [G51A C68G] | 3.03e-05 ± 1.4e-05 s⁻¹ |  |  |  |  |  | 
17 | AUAAAAGCGCCAGAACUACAGAAAUGUAGUUGACGAGGUGUAGGUUUAUCGAAUUUUCGGCGGAUGCCUCCAAA [A39U G41U] | 0.00058 ± 0.00011 s⁻¹ | 6.52e-05 ± 1.2e-05 s⁻¹ | 0.000489 ± 6.8e-05 s⁻¹ | 0.000402 ± 6.4e-05 s⁻¹ | 1710 ± 530 µM |  | 0.000138 ± 1.7e-05 s⁻¹
18 | AUAAAAGCGCCAGAACUACAGAAAUGUAGUUGACGAGGAGGAGGUUUAUCGAAUUUUCGGCGGAAACCUCCAAA [U65A G66A] | 0.00068 ± 8.6e-05 s⁻¹ | 6.05e-05 ± 1.3e-05 s⁻¹ | 0.000577 ± 7.2e-05 s⁻¹ | 0.000442 ± 6.9e-05 s⁻¹ | 1640 ± 390 µM | 3.95e-05 ± 1.7e-05 s⁻¹ | 0.000177 ± 2.8e-05 s⁻¹
